Results published in article PMC7221964, “Comparison of Molecular Recognition of Trimethyllysine and Trimethylthialysine by Epigenetic Reader Proteins” (Molecules, 2020).
Ends that are not written are not given here.

T1: KDM4A tandem tudor domain (TTD) reader (human, UniProt O75164 895-1011)
T1 construct: KDM4A, human, tandem tudor domain; also called KDM4ATTD
T1 sequence: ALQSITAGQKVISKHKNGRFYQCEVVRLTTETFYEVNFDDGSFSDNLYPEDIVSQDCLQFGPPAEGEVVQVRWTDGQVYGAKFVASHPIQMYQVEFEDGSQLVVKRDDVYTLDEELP

T2: SGF29 tandem tudor domain (TTD) reader (human, UniProt Q96ES7 115-293)
T2 construct: SGF29, human, tandem tudor domain; also called SGF29TTD
T2 sequence: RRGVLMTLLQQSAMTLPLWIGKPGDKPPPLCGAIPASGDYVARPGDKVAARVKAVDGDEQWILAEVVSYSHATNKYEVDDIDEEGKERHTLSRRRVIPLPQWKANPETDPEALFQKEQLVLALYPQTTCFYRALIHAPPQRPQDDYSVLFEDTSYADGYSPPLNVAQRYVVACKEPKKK

T3: TAF3 PHD reader domain (human, UniProt Q5VWG9 855-915)
T3 sequence: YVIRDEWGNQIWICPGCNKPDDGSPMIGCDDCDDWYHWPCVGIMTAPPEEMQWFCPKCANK

T4: KDM5A PHD3 reader domain (human, UniProt P29375 1609-1659)
T4 construct: KDM5A, human, third PHD zinc finger (PHD3)
T4 sequence: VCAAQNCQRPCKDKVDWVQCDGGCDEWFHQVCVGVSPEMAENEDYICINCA

B1: 10-mer histone H3 peptide bearing trimethyllysine at position 4 (H3K4me3) (peptide)
peptide: ARTKQTARKS
modifications: trimethyllysine (Kme3) at position 4
notes: histone H3, residues 1-10, printed as ART(Kme3/KCme3)QTARKS; also called 1–10 H3K4me3; source: synthetic peptide (solid-phase peptide synthesis, preparative HPLC)
B2: 10-mer histone H3 peptide bearing trimethylthialysine at position 4 (H3KC4me3) (peptide)
peptide: ARTCQTARKS
modifications: not fully specified (residue 4)
notes: histone H3, residues 1-10, printed as ART(Kme3/KCme3)QTARKS; position 4 is a cysteine alkylated to trimethylthialysine; The letter C at position 4 stands for the alkylated cysteine (trimethylthialysine), not a free cysteine; also called 1–10 H3KC4me3

What was measured:
Test in all cases: ITC; 19 injections of histone peptide (0.3–1.2 mM) into reader protein (22–100 µM), 298.15 K, same buffer as used in size exclusion chromatography, one-site fit, 3–5 repeats
Conditions in all cases: both partners purified
[1] = target: T1, KDM4A tandem tudor domain (TTD) reader
[2] = target: T2, SGF29 tandem tudor domain (TTD) reader
TAF3 PHD reader domain = target: T3, TAF3 PHD reader domain
BPTF PHD reader domain = BPTF PHD reader domain (human, UniProt Q12830 2865-3033)
KDM5A PHD3 reader domain = target: T4, KDM5A PHD3 reader domain

Binder	Kd [1] [µM]	dH [1] [kcal/mol]	Kd [2] [µM]	dH [2] [kcal/mol]	Kd (TAF3 PHD reader domain) [nM]	dH (TAF3 PHD reader domain) [kcal/mol]	dH (BPTF PHD reader domain) [kcal/mol]	Kd (KDM5A PHD3 reader domain) [nM]	dH (KDM5A PHD3 reader domain) [kcal/mol]	Kd (BPTF PHD reader domain) [µM]
B1	6.6 ± 0.8	-13 ± 0.2	2.6 ± 0.3	-8 ± 0.1	84 ± 12	-10.7 ± 0.1	-12.4 ± 0.1	71 ± 8	-10.7 ± 0.1	
B2	3.1 ± 0.6	-14.8 ± 0.2	6.1 ± 0.7	-5.8 ± 0.1	42 ± 7	-10.8 ± 0.1	-9 ± 0.1	150 ± 200	-9.6 ± 0.1	3.8 ± 0.5
